Among the data in patent US20230303695A1 (SHANGHAI XBH BIOTECHNOLOGY, published 2023) are Kd, koff and kon values, retold here.

For orientation: Kd means the concentration at which binding is half-saturated. One may read the koff as the first-order rate constant of dissociation. By kon is commonly meant the second-order rate constant of association.

For the assay, the target named is T1, recombinant human IGSF8 extracellular domain tagged by a human Fc region (IGSF8-hFc) (human, UniProt Q969P0 28-579, biotin label in Examples 17, 18 and 28 (site not given)).
T1 construct: also called IGSF8-Fc fusion protein; IGSF8-hFc-biotin; not shown: human Fc region
T1 sequence: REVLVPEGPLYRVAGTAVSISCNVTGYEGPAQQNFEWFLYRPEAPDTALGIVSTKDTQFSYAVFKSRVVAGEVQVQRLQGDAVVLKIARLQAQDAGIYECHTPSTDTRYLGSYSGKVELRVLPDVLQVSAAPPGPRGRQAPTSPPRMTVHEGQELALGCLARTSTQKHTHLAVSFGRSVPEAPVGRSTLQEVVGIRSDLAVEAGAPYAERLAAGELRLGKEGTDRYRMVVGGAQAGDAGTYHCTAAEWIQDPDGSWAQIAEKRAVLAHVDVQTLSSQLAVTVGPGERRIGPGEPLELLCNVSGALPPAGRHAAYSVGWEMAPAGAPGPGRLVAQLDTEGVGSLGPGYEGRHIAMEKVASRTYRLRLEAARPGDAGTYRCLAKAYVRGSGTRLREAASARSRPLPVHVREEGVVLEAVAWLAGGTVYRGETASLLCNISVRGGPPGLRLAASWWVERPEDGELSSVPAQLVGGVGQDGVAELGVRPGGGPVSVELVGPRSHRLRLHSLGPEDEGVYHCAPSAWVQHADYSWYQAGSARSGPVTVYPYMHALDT
Put plainly: SPR, Ab captured. The method, then: The binding affinities of the L1 and L2 antibodies to IGSF8 recombinant protein were determined by surface plasmon resonance (SPR). Briefly, anti-human Fab antibody was imobilized on acarboxyl-derivatized SPR chip surface, and the antibodies were captured on the resulting surface at 5 μg/ml for 30 seconds.
In general terms: Surface plasmon resonance follows binding to a sensor surface in real time, without labels.

B1: L2VL-S52V (antibody, V domains shown)
VH: EVQLVESGGGLEQPGGSLRLSCAGSGFTFRDYAMTWVRQAPGKGLEWVSSISGSGGNTYYADSVKGRFTISRDNSKNTLYLQMNSLRAEDTAIYYCARGEYSSGWPSWFDPWGQGTLVTVSS
VL: EIVLTQSPSSLSASVGDRVTISCRASRTVGTFLNWYQQRPGKPPQALILGVVILEGGVSSRFSGAGSGTEFSLTISSLQPEDIGTYYCQQSHDVPRTFGQGTKVDLR
Turning to B1, the Kd is 64.5 nM, the koff stood at 0.000806 s⁻¹ and the on-rate constant (kon) was determined as 12500 M⁻¹ s⁻¹.

B2: L1-02 (antibody, V domains shown)
VH: QVQLVESGGGVVQPGRSLRLSCAASGFTFSTYGMHWVRQAPGKGLEWVAVIWDDGSYKYYGDSVKGRFTISRDNSKNTLYLQMNSLRAEDTAVYYCARDGSGWGYAFDIWGQGTMVTVSS
VL: DIQLTQSPSSLSASVGDRVTITCQASQDISKPLNWYQHKPGKAPNPLVFDAANLETGVPPRFSATGSGTDFSLTITSLQPEDFATYYCQQYDSFPYTFGQGTRLDIK
B2: the Kd turned out to be 4.22 nM, the koff was found to be 0.00127 s⁻¹ and the kon came to 300000 M⁻¹ s⁻¹.

B3: L1-10 (antibody, V domains shown)
VH: QVQLVESGGGVVQPGRSLRLSCAASGFTFSTYGMHWVRQAPGKGLEWVAVIWDDGSYKYYGDSVKGRFTISRDNSKNTLYLQMNSLRAEDTAVYYCARDGSGWGYAFDIWGQGTMVTVSS
VL: DIQLTQSPSSLSASVGDRVTITCQASQDISEYLNWYQHKPGKAPNPLVFTSANLETGVPPRFSATGSGTDFSLTITSLQPEDFATYYCQQYDSFPYTFGQGTRLDIK
Consider B3, for which the equilibrium dissociation constant (Kd) was determined as 6.52 nM, the off-rate constant (koff) came out at 0.00196 s⁻¹ and the kon was 301000 M⁻¹ s⁻¹.

B4: L1-11 (antibody, V domains shown)
VH: QVQLVESGGGVVQPGRSLRLSCAASGFTFSTYGMHWVRQAPGKGLEWVAVIWDDGSYKYYGDSVKGRFTISRDNSKNTLYLQMNSLRAEDTAVYYCARDGSGWGYAFDIWGQGTMVTVSS
VL: DIQLTQSPSSLSASVGDRVTITCQASQDIEWALNWYQHKPGKAPNPLVFDAANLETGVPPRFSATGSGTDFSLTITSLQPEDFATYYCQQYDSFPYTFGQGTRLDIK
With B4, the Kd stood at 7.08 nM, the koff was found to be 0.0024 s⁻¹ and the kon was 339000 M⁻¹ s⁻¹.

B5: L1-06 (antibody, V domains shown)
VH: QVQLVESGGGVVQPGRSLRLSCAASGFTFSTYGMHWVRQAPGKGLEWVAVIWDDGSYKYYGDSVKGRFTISRDNSKNTLYLQMNSLRAEDTAVYYCARDGSGWGYAFDIWGQGTMVTVSS
VL: DIQLTQSPSSLSASVGDRVTITCQASQDIGPWLNWYQHKPGKAPNPLVFDAANLETGVPPRFSATGSGTDFSLTITSLQPEDFATYYCQQYDSFPYTFGQGTRLDIK
As for B5, the Kd turned out to be 2.3 nM, the koff was determined as 0.00104 s⁻¹ and the association rate constant (kon) is 453000 M⁻¹ s⁻¹.

B6: L1-04 (antibody, V domains shown)
VH: QVQLVESGGGVVQPGRSLRLSCAASGFTFSTYGMHWVRQAPGKGLEWVAVIWDDGSYKYYGDSVKGRFTISRDNSKNTLYLQMNSLRAEDTAVYYCARDGSGWGYAFDIWGQGTMVTVSS
VL: DIQLTQSPSSLSASVGDRVTITCQASQDISEYLNWYQHKPGKAPNPLVFGSPNLETGVPPRFSATGSGTDFSLTITSLQPEDFATYYCQQYDSFPYTFGQGTRLDIK
For B6, the dissociation constant Kd came to 7.33 nM, the koff is 0.0022 s⁻¹ and the on-rate constant (kon) is 300000 M⁻¹ s⁻¹.

B7: L1-03 (antibody, V domains shown)
VH: QVQLVESGGGVVQPGRSLRLSCAASGFTFSTYGMHWVRQAPGKGLEWVAVIWDDGSYKYYGDSVKGRFTISRDNSKNTLYLQMNSLRAEDTAVYYCARDGSGWGYAFDIWGQGTMVTVSS
VL: DIQLTQSPSSLSASVGDRVTITCQASQDISEYLNWYQHKPGKAPNPLVFRSPNLETGVPPRFSATGSGTDFSLTITSLQPEDFATYYCQQYDSFPYTFGQGTRLDIK
As for B7, the dissociation constant Kd stood at 5.88 nM, the off-rate constant (koff) is 0.00172 s⁻¹ and the kon is 293000 M⁻¹ s⁻¹.

B8: L1-07 (antibody, V domains shown)
VH: QVQLVESGGGVVQPGRSLRLSCAASGFTFSTYGMHWVRQAPGKGLEWVAVIWDDGSYKYYGDSVKGRFTISRDNSKNTLYLQMNSLRAEDTAVYYCARDGSGWGYAFDIWGQGTMVTVSS
VL: DIQLTQSPSSLSASVGDRVTITCQASQDIEWWLNWYQHKPGKAPNPLVFDAANLETGVPPRFSATGSGTDFSLTITSLQPEDFATYYCQQYDSFPYTFGQGTRLDIK
With B8, the Kd amounted to 1.34 nM, the koff was 0.000445 s⁻¹ and the kon came to 332000 M⁻¹ s⁻¹.

B9: L1-08 (antibody, V domains shown)
VH: QVQLVESGGGVVQPGRSLRLSCAASGFTFSTYGMHWVRQAPGKGLEWVAVIWDDGSYKYYGDSVKGRFTISRDNSKNTLYLQMNSLRAEDTAVYYCARDGSGWGYAFDIWGQGTMVTVSS
VL: DIQLTQSPSSLSASVGDRVTITCQASQDIGAYLNWYQHKPGKAPNPLVFDAANLETGVPPRFSATGSGTDFSLTITSLQPEDFATYYCQQYDSFPYTFGQGTRLDIK
Consider B9, for which the Kd was 5.78 nM, the koff was determined as 0.00253 s⁻¹ and the kon turned out to be 437000 M⁻¹ s⁻¹.

B10: L1-05 (antibody, V domains shown)
VH: QVQLVESGGGVVQPGRSLRLSCAASGFTFSTYGMHWVRQAPGKGLEWVAVIWDDGSYKYYGDSVKGRFTISRDNSKNTLYLQMNSLRAEDTAVYYCARDGSGWGYAFDIWGQGTMVTVSS
VL: DIQLTQSPSSLSASVGDRVTITCQASQDITKGLNWYQHKPGKAPNPLVFDAANLETGVPPRFSATGSGTDFSLTITSLQPEDFATYYCQQYDSFPYTFGQGTRLDIK
On to B10, for which the Kd is 6.17 nM, the koff turned out to be 0.00148 s⁻¹ and the kon stood at 241000 M⁻¹ s⁻¹.

B11: L1-13 (antibody, V domains shown)
VH: QVQLVESGGGVVQPGRSLRLSCAASGFTFSTYGMHWVRQAPGKGLEWVAVIWDDGSYKYYGDSVKGRFTISRDNSKNTLYLQMNSLRAEDTAVYYCARDGSGWGYAFDIWGQGTMVTVSS
VL: DIQLTQSPSSLSASVGDRVTITCQASQDISEYLNWYQHKPGKAPNPLVFDAPNLETGVPPRFSATGSGTDFSLTITSLQPEDFATYYCQQYDSFPYTFGQGTRLDIK
With B11, the Kd was found to be 4.88 nM, the koff came out at 0.00216 s⁻¹ and the kon was determined as 443000 M⁻¹ s⁻¹.

B12: L1-12 (antibody, V domains shown)
VH: QVQLVESGGGVVQPGRSLRLSCAASGFTFSTYGMHWVRQAPGKGLEWVAVIWDDGSYKYYGDSVKGRFTISRDNSKNTLYLQMNSLRAEDTAVYYCARDGSGWGYAFDIWGQGTMVTVSS
VL: DIQLTQSPSSLSASVGDRVTITCQASQDISEYLNWYQHKPGKAPNPLVFGADNLETGVPPRFSATGSGTDFSLTITSLQPEDFATYYCQQYDSFPYTFGQGTRLDIK
For B12, the Kd was 3.08 nM, the koff stood at 0.00142 s⁻¹ and the kon turned out to be 461000 M⁻¹ s⁻¹.

B13: L1-09 (antibody, V domains shown)
VH: QVQLVESGGGVVQPGRSLRLSCAASGFTFSTYGMHWVRQAPGKGLEWVAVIWDDGSYKYYGDSVKGRFTISRDNSKNTLYLQMNSLRAEDTAVYYCARDGSGWGYAFDIWGQGTMVTVSS
VL: DIQLTQSPSSLSASVGDRVTITCQASQDISEYLNWYQHKPGKAPNPLVFARDNLETGVPPRFSATGSGTDFSLTITSLQPEDFATYYCQQYDSFPYTFGQGTRLDIK
On to B13, for which the equilibrium dissociation constant (Kd) worked out at 5.47 nM, the koff was 0.00223 s⁻¹ and the kon came out at 408000 M⁻¹ s⁻¹.
